Molecular target: FRQ WT peptide … (FFD and the double arginines) (N. crassa)
Experiment: peptide or protein array

normalized microarray intensity: 64
Substance: FREQUENCY-Interacting RNA Helicase, FRHΔ100 (E. coli expressed, 6x His-tag) (from UniProt Q1K502 100-1106) (domain or fragment)

From paper doi:10.1101/2022.01.04.474980
